Results published in paper PMC6167206 (Molecular microbiology, 2018).

Biological target: the molecule itself
Assay: cross-linking

B1: AcpA-His (natural protein)
chain: MEKDISRKIDLLNILIEEKRWFTLFELEKNLNCSSKTIRKDISIINDLLPKTIFIHSKKGKGVKLSLPQNQSISEAISNLLKKSLTFLAIQQLLEERSNTVTSLADKLYLPISSTNIVLKRVSKYIKKFGLSLEKKPLRIVGDEFQIILMFSERYLESYPDTEWPFTEYKEEMLIDYINYIEEKLEIVFYSNDKRRMAFIMTILFKRIKQGHKVKFSEWIIKETMESIYYKKIFEGKNVIKVNKNRSLNIEEQVLLVIMVKLSRYVSKDENNLKQEELVLYKEGESTTYTYVKNFISILEQELKIDLNNNEEFVYGMIEYCREAFHILKFIPILKAPEKDTCKYIKKHYEETFYLVKRAYNKWGAEMKLTDIPDEEIAKVTMRIVAIGKQHNINRKKVLLITGEGKSWEEYMKSRINKRYGDQLKFVGGHAKILNGNTDNIDNIDIDFIITTVPLNFSWKSIVYVSPILQERDFYEIGIFASK
  stoichiometry N: 2
